This assay addresses trimeric Spike, full B.1.351 variant (SARS-CoV-2, lineage B.1.351 (Beta), strain). Nature of the assay: Luminex bead-based binding assay.

B1: REGN10933 (antibody, V domains shown)
VH: QVQLVESGGGLVKPGGSLRLSCAASGFTFSDYYMSWIRQAPGKGLEWVSYITYSGSTIYYADSVKGRFTISRDNAKSSLYLQMNSLRAEDTAVYYCARDRGTTMVPFDYWGQGTLVTVSS
VL: DIQMTQSPSSLSASVGDRVTITCQASQDITNYLNWYQQKPGKAPKLLIYAASNLETGVPSRFSGSGSGTDFTFTISGLQPEDIATYYCQQYDNLPLTFGGGTKVEIK
For the molecule B1, the “fold reduced binding affinity” value was 15 fold.

The record behind these values is PMC8452523 (Cell Reports, 2021).
